Test results: paper PMC10540216, “Activity Guided Azide-methyllysine Photo-trapping for Substrate Profiling of Lysine Demethylases” (Journal of the American Chemical Society, 2023)

B1: CAND1_HUMAN (protein, UniProt Q86VP6 2-1230, looked up)
Cullin-associated …: ASASYHISNLLEKMTSSDKDFRFMATNDLMTELQKDSIKLDDDSERKVVKMILKLLEDKNGEVQNLAVKCLGPLVSKVKEYQVETIVDTLCTNMLSDKEQLRDISSIGLKTVIGELPPASSGSALAANVCKKITGRLTSAIAKQEDVSVQLEALDIMADMLSRQGGLLVNFHPSILTCLLPQLTSPRLAVRKRTIIALGHLVMSCGNIVFVDLIEHLLSELSKNDSMSTTRTYIQCIAAISRQAGHRIGEYLEKIIPLVVKFCNVDDDELREYCIQAFESFVRRCPKEVYPHVSTIINICLKYLTYDPNYNYDDEDEDENAMDADGGDDDDQGSDDEYSDDDDMSWKVRRAAAKCLDAVVSTRHEMLPEFYKTVSPALISRFKEREENVKADVFHAYLSLLKQTRPVQSWLCDPDAMEQGETPLTMLQSQVPNIVKALHKQMKEKSVKTRQCCFNMLTELVNVLPGALTQHIPVLVPGIIFSLNDKSSSSNLKIDALSCLYVILCNHSPQVFHPHVQALVPPVVACVGDPFYKITSEALLVTQQLVKVIRPLDQPSSFDATPYIKDLFTCTIKRLKAADIDQEVKERAISCMGQIICNLGDNLGSDLPNTLQIFLERLKNEITRLTTVKALTLIAGSPLKIDLRPVLGEGVPILASFLRKNQRALKLGTLSALDILIKNYSDSLTAAMIDAVLDELPPLISESDMHVSQMAISFLTTLAKVYPSSLSKISGSILNELIGLVRSPLLQGGALSAMLDFFQALVVTGTNNLGYMDLLRMLTGPVYSQSTALTHKQSYYSIAKCVAALTRACPKEGPAVVGQFIQDVKNSRSTDSIRLLALLSLGEVGHHIDLSGQLELKSVILEAFSSPSEEVKSAASYALGSISVGNLPEYLPFVLQEITSQPKRQYLLLHSLKEIISSASVVGLKPYVENIWALLLKHCECAEEGTRNVVAECLGKLTLIDPETLLPRLKGYLISGSSYARSSVVTAVKFTISDHPQPIDPLLKNCIGDFLKTLEDPDLNVRRVALVTFNSAAHNKPSLIRDLLDTVLPHLYNETKVRKELIREVEMGPFKHTVDDGLDIRKAAFECMYTLLDSCLDRLDIFEFLNHVEDGLKDHYDIKMLTFLMLVRLSTLCPSAVLQRLDRLVEPLRATCTTKVKANSVKQEFEKQDELKRSAMRAVAALLTIPEAEKSPLMSEFQSQISSNPELAAIFESIQKDSSSTNLESMDTS
B2: RBM10_HUMAN (protein, UniProt P98175 1-930, looked up)
RNA-binding protein 10: MEYERRGGRGDRTGRYGATDRSQDDGGENRSRDHDYRDMDYRSYPREYGSQEGKHDYDDSSEEQSAEDSYEASPGSETQRRRRRRHRHSPTGPPGFPRDGDYRDQDYRTEQGEEEEEEEDEEEEEKASNIVMLRMLPQAATEDDIRGQLQSHGVQAREVRLMRNKSSGQSRGFAFVEFSHLQDATRWMEANQHSLNILGQKVSMHYSDPKPKINEDWLCNKCGVQNFKRREKCFKCGVPKSEAEQKLPLGTRLDQQTLPLGGRELSQGLLPLPQPYQAQGVLASQALSQGSEPSSENANDTIILRNLNPHSTMDSILGALAPYAVLSSSNVRVIKDKQTQLNRGFAFIQLSTIVEAAQLLQILQALHPPLTIDGKTINVEFAKGSKRDMASNEGSRISAASVASTAIAAAQWAISQASQGGEGTWATSEEPPVDYSYYQQDEGYGNSQGTESSLYAHGYLKGTKGPGITGTKGDPTGAGPEASLEPGADSVSMQAFSRAQPGAAPGIYQQSAEASSSQGTAANSQSYTIMSPAVLKSELQSPTHPSSALPPATSPTAQESYSQYPVPDVSTYQYDETSGYYYDPQTGLYYDPNSQYYYNAQSQQYLYWDGERRTYVPALEQSADGHKETGAPSKEGKEKKEKHKTKTAQQIAKDMERWARSLNKQKENFKNSFQPISSLRDDERRESATADAGYAILEKKGALAERQHTSMDLPKLASDDRPSPPRGLVAAYSGESDSEEEQERGGPEREEKLTDWQKLACLLCRRQFPSKEALIRHQQLSGLHKQNLEIHRRAHLSENELEALEKNDMEQMKYRDRAAERREKYGIPEPPEPKRRKYGGISTASVDFEQPTRDGLGSDNIGSRMLQAMGWKEGSGLGRKKQGIVTPIEAQTRVRGSGLGARGSSYGVTSTESYKETLHKTMVTRFNEAQ
B3: SF3B3_HUMAN (protein, UniProt Q15393 1-1217, looked up)
Splicing factor 3B subunit 3: MFLYNLTLQRATGISFAIHGNFSGTKQQEIVVSRGKILELLRPDPNTGKVHTLLTVEVFGVIRSLMAFRLTGGTKDYIVVGSDSGRIVILEYQPSKNMFEKIHQETFGKSGCRRIVPGQFLAVDPKGRAVMISAIEKQKLVYILNRDAAARLTISSPLEAHKANTLVYHVVGVDVGFENPMFACLEMDYEEADNDPTGEAAANTQQTLTFYELDLGLNHVVRKYSEPLEEHGNFLITVPGGSDGPSGVLICSENYITYKNFGDQPDIRCPIPRRRNDLDDPERGMIFVCSATHKTKSMFFFLAQTEQGDIFKITLETDEDMVTEIRLKYFDTVPVAAAMCVLKTGFLFVASEFGNHYLYQIAHLGDDDEEPEFSSAMPLEEGDTFFFQPRPLKNLVLVDELDSLSPILFCQIADLANEDTPQLYVACGRGPRSSLRVLRHGLEVSEMAVSELPGNPNAVWTVRRHIEDEFDAYIIVSFVNATLVLSIGETVEEVTDSGFLGTTPTLSCSLLGDDALVQVYPDGIRHIRADKRVNEWKTPGKKTIVKCAVNQRQVVIALTGGELVYFEMDPSGQLNEYTERKEMSADVVCMSLANVPPGEQRSRFLAVGLVDNTVRIISLDPSDCLQPLSMQALPAQPESLCIVEMGGTEKQDELGERGSIGFLYLNIGLQNGVLLRTVLDPVTGDLSDTRTRYLGSRPVKLFRVRMQGQEAVLAMSSRSWLSYSYQSRFHLTPLSYETLEFASGFASEQCPEGIVAISTNTLRILALEKLGAVFNQVAFPLQYTPRKFVIHPESNNLIIIETDHNAYTEATKAQRKQQMAEEMVEAAGEDERELAAEMAAAFLNENLPESIFGAPKAGNGQWASVIRVMNPIQGNTLDLVQLEQNEAAFSVAVCRFSNTGEDWYVLVGVAKDLILNPRSVAGGFVYTYKLVNNGEKLEFLHKTPVEEVPAAIAPFQGRVLIGVGKLLRVYDLGKKKLLRKCENKHIANYISGIQTIGHRVIVSDVQESFIWVRYKRNENQLIIFADDTYPRWVTTASLLDYDTVAGADKFGNICVVRLPPNTNDEVDEDPTGNKALWDRGLLNGASQKAEVIMNYHVGETVLSLQKTTLIPGGSESLVYTTLSGGIGILVPFTSHEDHDFFQHVEMHLRSEHPPLCGRDHLSFRSYYFPVKNVIDGDLCEQFNSMEPNKQKNVSEELDRTPPEVSKKLEDIRTRYAF
B4: RBM26_HUMAN (protein, UniProt Q5T8P6 1-1007, looked up)
RNA-binding protein 26: MVSKMIIENFEALKSWLSKTLEPICDADPSALAKYVLALVKKDKSEKELKALCIDQLDVFLQKETQIFVEKLFDAVNTKSYLPPPEQPSSGSLKVEFFPHQEKDIKKEEITKEEEREKKFSRRLNHSPPQSSSRYRENRSRDERKKDDRSRKRDYDRNPPRRDSYRDRYNRRRGRSRSYSRSRSRSWSKERLRERDRDRSRTRSRSRTRSRERDLVKPKYDLDRTDPLENNYTPVSSVPSISSGHYPVPTLSSTITVIAPTHHGNNTTESWSEFHEDQVDHNSYVRPPMPKKRCRDYDEKGFCMRGDMCPFDHGSDPVVVEDVNLPGMLPFPAQPPVVEGPPPPGLPPPPPILTPPPVNLRPPVPPPGPLPPSLPPVTGPPPPLPPLQPSGMDAPPNSATSSVPTVVTTGIHHQPPPAPPSLFTADTYDTDGYNPEAPSITNTSRPMYRHRVHAQRPNLIGLTSGDMDLPPREKPPNKSSMRIVVDSESRKRTIGSGEPGVPTKKTWFDKPNFNRTNSPGFQKKVQFGNENTKLELRKVPPELNNISKLNEHFSRFGTLVNLQVAYNGDPEGALIQFATYEEAKKAISSTEAVLNNRFIKVYWHREGSTQQLQTTSPKVMQPLVQQPILPVVKQSVKERLGPVPSSTIEPAEAQSASSDLPQNVTKLSVKDRLGFVSKPSVSATEKVLSTSTGLTKTVYNPAALKAAQKTLLVSTSAVDNNEAQKKKQEALKLQQDVRKRKQEILEKHIETQKMLISKLEKNKTMKSEDKAEIMKTLEVLTKNITKLKDEVKAASPGRCLPKSIKTKTQMQKELLDTELDLYKKMQAGEEVTELRRKYTELQLEAAKRGILSSGRGRGIHSRGRGAVHGRGRGRGRGRGVPGHAVVDHRPRALEISAFTESDREDLLPHFAQYGEIEDCQIDDSSLHAVITFKTRAEAEAAAVHGARFKGQDLKLAWNKPVTNISAVETEEVEPDEEEFQEESLVDDSLLQDDDEEEEDNESRSWRR
B5: TR150_HUMAN (protein, UniProt Q9Y2W1 2-955, looked up)
Thyroid hormone …: SKTNKSKSGSRSSRSRSASRSRSRSFSKSRSRSRSLSRSRKRRLSSRSRSRSYSPAHNRERNHPRVYQNRDFRGHNRGYRRPYYFRGRNRGFYPWGQYNRGGYGNYRSNWQNYRQAYSPRRGRSRSRSPKRRSPSPRSRSHSRNSDKSSSDRSRRSSSSRSSSNHSRVESSKRKSAKEKKSSSKDSRPSQAAGDNQGDEAKEQTFSGGTSQDTKASESSKPWPDATYGTGSASRASAVSELSPRERSPALKSPLQSVVVRRRSPRPSPVPKPSPPLSSTSQMGSTLPSGAGYQSGTHQGQFDHGSGSLSPSKKSPVGKSPPSTGSTYGSSQKEESAASGGAAYTKRYLEEQKTENGKDKEQKQTNTDKEKIKEKGSFSDTGLGDGKMKSDSFAPKTDSEKPFRGSQSPKRYKLRDDFEKKMADFHKEEMDDQDKDKAKGRKESEFDDEPKFMSKVIGANKNQEEEKSGKWEGLVYAPPGKEKQRKTEELEEESFPERSKKEDRGKRSEGGHRGFVPEKNFRVTAYKAVQEKSSSPPPRKTSESRDKLGAKGDFPTGKSSFSITREAQVNVRMDSFDEDLARPSGLLAQERKLCRDLVHSNKKEQEFRSIFQHIQSAQSQRSPSELFAQHIVTIVHHVKEHHFGSSGMTLHERFTKYLKRGTEQEAAKNKKSPEIHRRIDISPSTFRKHGLAHDEMKSPREPGYKAEGKYKDDPVDLRLDIERRKKHKERDLKRGKSRESVDSRDSSHSRERSAEKTEKTHKGSKKQKKHRRARDRSRSSSSSSQSSHSYKAEEYTEETEEREESTTGFDKSRLGTKDFVGPSERGGGRARGTFQFRARGRGWGRGNYSGNNNNNSNNDFQKRNREEEWDPEYTPKSKKYYLHDDREGEGSDKWVSRGRGRGAFPRGRGRFMFRKSSTSPKWAHDKFSGEEGEIEDDESGTENREEKDNIQPTTE

system: KDM4A-I71AzF; experiment: CASI: photo-crosslinking with HEK293T cell extracts, StrepTactin enrichment and LC-MS/MS proteomics; assay type: binding, human; conditions: sheet "Final results but with 0.01";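 note: lysates from HEK293T cells pretreated with a KDM4 inhibitor to raise proteome methylation, affinity-purified after ±UV, gel-resolved, trypsin-digested, with exclusive unique peptides per protein averaged per condition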

First: B1
Second: B2
The “Fold change (+UV/-UV)” value of the first is higher: 0.3333 for the first, 0 for the second.

Going from B3 to B4, the “Fold change (+UV/-UV)” value falls from 0.7381 to 0.3333.

For B5, the “Fold change (+UV/-UV)” value was 1.333.
